target: recombinant human tau (human) (UniProt P10636); test: SPR, Biacore T200: antibody captured on anti-mouse CM5 chip, recombinant human tau 10-0.14 nM as analyte, global 1:1 fit
Sequence (P10636 other isoform, or with tags, fused parts or gaps limits assumed): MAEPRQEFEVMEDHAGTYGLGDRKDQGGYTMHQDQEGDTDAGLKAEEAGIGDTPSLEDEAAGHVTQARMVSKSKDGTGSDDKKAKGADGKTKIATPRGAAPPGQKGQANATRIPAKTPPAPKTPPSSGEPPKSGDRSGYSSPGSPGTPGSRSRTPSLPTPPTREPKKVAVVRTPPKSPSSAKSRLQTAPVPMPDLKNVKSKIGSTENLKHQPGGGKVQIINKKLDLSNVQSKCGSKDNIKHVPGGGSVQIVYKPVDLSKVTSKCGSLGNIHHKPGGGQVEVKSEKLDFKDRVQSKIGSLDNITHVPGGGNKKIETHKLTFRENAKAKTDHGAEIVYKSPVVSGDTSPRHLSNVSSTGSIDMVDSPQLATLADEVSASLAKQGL

Binder | Kd | koff | kon
7G6 (antibody, from another filing, V domains shown) VH: QVQLLQPGAELVKPGASVIMSCKASGYTFTTYWITWVKQRPGQGLEWIGDIYPGSSICNYNEKFKSKATLTVDTSSSTAYMQLNSLTSEDSAVYYCAREDGYDAWFAYWGQGTLVTVSA VL: DVLMTQTPLSLPVSLGDQASISCRSSQSILHSNGNTYLEWYLQKPGQSPKLLICKVSNRFSGVPDRFSGSGSGTDFTLKISRVEAEDLGVYYCFQGSHVPFTFGSGTKLEIK | 5.77 nM | 0.00332 s⁻¹ | 576000 M⁻¹ s⁻¹

target: pHrodo-labeled 4R0N human tau P301L soluble oligomer (human), P10636; test: cell-based or functional assay
Sequence (P10636 other isoform, or with tags, fused parts or gaps P301L P301L): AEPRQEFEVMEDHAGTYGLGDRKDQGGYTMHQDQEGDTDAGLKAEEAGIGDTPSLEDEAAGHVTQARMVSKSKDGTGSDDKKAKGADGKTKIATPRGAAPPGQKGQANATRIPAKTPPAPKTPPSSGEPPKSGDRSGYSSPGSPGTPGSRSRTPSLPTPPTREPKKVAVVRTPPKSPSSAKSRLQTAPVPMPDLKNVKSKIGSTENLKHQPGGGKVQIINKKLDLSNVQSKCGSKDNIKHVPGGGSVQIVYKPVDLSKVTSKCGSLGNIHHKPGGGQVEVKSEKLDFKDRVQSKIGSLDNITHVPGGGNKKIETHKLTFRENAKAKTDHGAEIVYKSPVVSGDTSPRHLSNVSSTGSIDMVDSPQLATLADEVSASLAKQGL

Binder | Inhibition of cell based internalization (at 133 nM antibody concentration, % of inhibition of maximal fluorescent signal)
Hu3D6VHvb6 / Hu3D6VLvb2 (antibody, V domains shown, here or on the partner: pHrodo-labeled) VH: EVQLVQSGAEVVKPGATVKISCKASGFTIKDYYLHWVRQRPGKGLEWIGWIDPEDGETVYDPKFQGRVTITADTSTDTAYMELSSLRSEDTAVYFCSTLDFWGQGTLVTVSS VL: not shown | 76.3%
Hu3D6VHvb4 / Hu3D6VLvb2 (antibody, V domains shown, here or on the partner: pHrodo-labeled) VH: EVQLVQSGAEVVKPGATVKISCKASGFTIKDYYLHWVRQRPGKGLEWIGWIDPENGDTIYDPKFQGRVTITADTSTDTAYMELSSLRSEDTAVYYCSTLDFWGQGTLVTVSS VL: not shown | 61%
Hu3D6VHvb3 / Hu3D6VLvb3 (antibody, V domains shown, here or on the partner: pHrodo-labeled) VH: EVQLVQSGAEVVKPGATVKISCKASGFNIKDYYLHWVRQRPGKGLEWIGWIDPENGDTIYDPKFQGRATITADTSTDTAYMELSSLRSEDTAVYYCSTLDFWGQGTLVTVSS VL: DVVMTQSPLSLSVTLGEPASISCRSSQSLLDSDGKTYLNWLQQRPGQSPRRLIYLVSKLDSGVPDRFSGSGSGTDFTLKISRVEAEDVGVYYCWQGTHFPYTFGQGTKLEIKR | 72.1%
Hu3D6VHvb7 / Hu3D6VLvb2 (antibody, V domains shown, here or on the partner: pHrodo-labeled) VH: EVQLVQSGAEVVKPGATVKISCKASGFTIKDYYLHWVRQRPGKGLEWIGWIDPEDGETVYDPKFQGRVTITADTSTDTAYMELSSLRSEDTAVYYCSTLDFWGQGTLVTVSS VL: not shown | 74.5%
Hu3D6VHvb4 / Hu3D6VLvb3 (antibody, V domains shown, here or on the partner: pHrodo-labeled) VH: EVQLVQSGAEVVKPGATVKISCKASGFTIKDYYLHWVRQRPGKGLEWIGWIDPENGDTIYDPKFQGRVTITADTSTDTAYMELSSLRSEDTAVYYCSTLDFWGQGTLVTVSS VL: DVVMTQSPLSLSVTLGEPASISCRSSQSLLDSDGKTYLNWLQQRPGQSPRRLIYLVSKLDSGVPDRFSGSGSGTDFTLKISRVEAEDVGVYYCWQGTHFPYTFGQGTKLEIKR | 49%
Hu3D6VHvb2 / Hu3D6VLvb2 (antibody, V domains shown, here or on the partner: pHrodo-labeled) VH: EVQLVQSGAEVVKPGASVKISCKASGFNIKDYYLHWVRQRPGKGLEWIGWIDPENGDTVYDPKFQGRATITADTSTDTAYLELSSLTSEDTAVYFCSTLDFWGQGTLVTVSS VL: not shown | 84.9%
Hu3D6VHvb2 / Hu3D6VLvb3 (antibody, V domains shown, here or on the partner: pHrodo-labeled) VH: EVQLVQSGAEVVKPGASVKISCKASGFNIKDYYLHWVRQRPGKGLEWIGWIDPENGDTVYDPKFQGRATITADTSTDTAYLELSSLTSEDTAVYFCSTLDFWGQGTLVTVSS VL: DVVMTQSPLSLSVTLGEPASISCRSSQSLLDSDGKTYLNWLQQRPGQSPRRLIYLVSKLDSGVPDRFSGSGSGTDFTLKISRVEAEDVGVYYCWQGTHFPYTFGQGTKLEIKR | 85%
Hu3D6VHvb3 / Hu3D6VLvb2 (antibody, V domains shown, here or on the partner: pHrodo-labeled) VH: EVQLVQSGAEVVKPGATVKISCKASGFNIKDYYLHWVRQRPGKGLEWIGWIDPENGDTIYDPKFQGRATITADTSTDTAYMELSSLRSEDTAVYYCSTLDFWGQGTLVTVSS VL: not shown | 71.2%
Hu3D6VHvb7 / Hu3D6VLvb3 (antibody, V domains shown, here or on the partner: pHrodo-labeled) VH: EVQLVQSGAEVVKPGATVKISCKASGFTIKDYYLHWVRQRPGKGLEWIGWIDPEDGETVYDPKFQGRVTITADTSTDTAYMELSSLRSEDTAVYYCSTLDFWGQGTLVTVSS VL: DVVMTQSPLSLSVTLGEPASISCRSSQSLLDSDGKTYLNWLQQRPGQSPRRLIYLVSKLDSGVPDRFSGSGSGTDFTLKISRVEAEDVGVYYCWQGTHFPYTFGQGTKLEIKR | 66%
Hu3D6VHvb5 / Hu3D6VLvb3 (antibody, V domains shown, here or on the partner: pHrodo-labeled) VH: EVQLVQSGAEVVKPGATVKISCKASGFTIKDYYLHWVRQRPGKGLEWIGWIDPEDGETIYDPKFQGRVTITADTSTDTAYMELSSLRSEDTAVYYCSTLDFWGQGTLVTVSS VL: DVVMTQSPLSLSVTLGEPASISCRSSQSLLDSDGKTYLNWLQQRPGQSPRRLIYLVSKLDSGVPDRFSGSGSGTDFTLKISRVEAEDVGVYYCWQGTHFPYTFGQGTKLEIKR | 67.7%
Hu3D6VHvb5 / Hu3D6VLvb2 (antibody, V domains shown, here or on the partner: pHrodo-labeled) VH: EVQLVQSGAEVVKPGATVKISCKASGFTIKDYYLHWVRQRPGKGLEWIGWIDPEDGETIYDPKFQGRVTITADTSTDTAYMELSSLRSEDTAVYYCSTLDFWGQGTLVTVSS VL: not shown | 67.2%
Hu3D6VHvb6 / Hu3D6VLvb3 (antibody, V domains shown, here or on the partner: pHrodo-labeled) VH: EVQLVQSGAEVVKPGATVKISCKASGFTIKDYYLHWVRQRPGKGLEWIGWIDPEDGETVYDPKFQGRVTITADTSTDTAYMELSSLRSEDTAVYFCSTLDFWGQGTLVTVSS VL: DVVMTQSPLSLSVTLGEPASISCRSSQSLLDSDGKTYLNWLQQRPGQSPRRLIYLVSKLDSGVPDRFSGSGSGTDFTLKISRVEAEDVGVYYCWQGTHFPYTFGQGTKLEIKR | 70%
Hu3D6VHvb1 / Hu3D6VLvb1 (antibody, V domains shown, here or on the partner: pHrodo-labeled) VH: QVQLQQSGAELVKPGASVKLSCTASGFNIKDYYLHWVKQRPEQGLEWIGWIDPENGDTVYDPKFQGKATITADTSSNTAYLQLSSLTSEDTAVYFCSTLDFWGQGTTLTVSS VL: not shown | 80%
